Measured values reported in the DeepSol protein solubility set.

Experiment: soluble on expression in E. coli; label from the status in PepcDB or PDB records

Sequence	soluble on expression in E. coli
MSLRDEQEIYNLVLNIANQDKRIEAVLLNGSRANPNVPKDDFQDYDIVFVTNFIEDIISDTNYHKKFGDILIMQKPNEFRNKTEYNCFAYLMQFQDLTRIDLRLIKPEFLEDYLDDAFSKVLLDKKNKYLDYNFERSSLYETKQLSEDEINKILNEIYWVSTYVVKGIARNDIIYSEFMISNPIKNAFIKLLKQKILIEKELDSLSFGKLDKDILQYITDKDQLLKIFSNKSLKDIEANLRFLLDETNQMAKYISINRKLNLNQGEYQSAMKFMNIFLSNSYQNFNEGHHHHHH	soluble
MGSDKIHHHHHHMAGVILLLMGEGLACAHDTALLDKAGRLMASRDYAAAYALLEPVESEYSGDPAYDMLFGLAAIDSGHVTRGVFALERVLAVQPYNGNARAQIARAYFLLGEQEAARAEFRNVLNQQPPEEITQVINRYMSAIDKAQGLTTAFSAYLEGGVGHDSNVNSATAASSVTVAVPALGGLIVDIGLDRQARESSDNYTNLAGGISFRTPLARRFALFAGINASQRLNRHQDAFDLGMLDANVGLSYRQHRDTYTVAAQANSLSLDDQTYRRAYGINMQWQRDIDTKNQVNLFAQVSRLAYPDNRIRDADRYIVGGGWAHVFDGDLTPLLFVSGYGGKEQARNEYADFLSYRVHGVRSGGQLTLRPNLVAFTTLGYENRRHDEPETFPFLFATREDKQLDASVGLRYLPGYNWIIKPQFTFIRNDSTVELYSFDRYMVSVSVRREFNW	not soluble
MGSDKIHHHHHHMALEDLVILLVEDDPVFRSIVAAFLTNRGATVIEADDGQQGLERFSQHDFDIVLADLSMPILGGLDMLKQMIKRKPDTLSIVISGNQVMADVVEALRVGASDYLVKPVNDLCLIENAIRQCVGGSSQQDVQLEDLDELSYQELEEHLNLLEQNAEAAKSVQQQLFPPSVIDYPKAKIDYSLFKHDEVSAYFIDSVNVGERYLIMYMAHFHPQDNRCAFASVLLKSFVNQKLKQFRNDNTETVIEPFNMLSYLNERMSKSGLDIYVDIVYAVVELTHYRASIAQAGKGLRCYIRNEEGLMPLAMPDALQLGILEWGQPSTQFRNLMPGESLCVASSNIEHRDMLLNDEFVGLSYSPEVAPGGYVQMSF	not soluble
GQYTFSMPSDSHVSSCSEDWVGYQRKCYFISTVKRSWTSAQNACSEHGATLAVIDSEKDMNFLKRYAGREEHWVGLKKEPGHPWKWSNGKEFNNWFNVTGSDKCVFLKNTEVSSMECEKNLYWICNKPYK	soluble
MQIYTADGKLIGEVGEQRRIPVKLADVPQRLIDAFLATEDSRFYDHHGLDPIGIARALFVAVSNGGASQGASTITQQLARNFFLTSEKTIIRKAREAVLAVEIENTLNKQEILELYLNKIFLGYRSYGVAAAAQTYFGKSLNELTLSEMAIIAGLPKAPSTMNPLYSL	not soluble
MSLDASQGGEQQSFSWDNATVYFAITDRFHDGNPSNNQSYGRPQEDAWGQNIGTFHGGDLQGLTDKLNEGYFTELGINAIWITAPYEQVHGWVGGGSDGDFAHYAYHGYYALDYTMIDQNMGTVEDMREFVHTAHEQGIRVVLDVVMNHPGYNTIKDMHEYGFGNPGVSEHWTPGQGQNWHDVHQQINYEDAGAWRHWWGPWIRAGIAGYESCGNSEITMCLAGLPDFRTELTHSVGLPPLLETKWNQERQGGYEDWIVPAANDLRRDLGVAPADYIVKWLSAWVEEFGIDGFRVDTAKHVELSRWQQLKDAANEALWKWREENPEAPGANWTDDFWMVGEVWGHGVGRSEYFDHGFDSVINFTFQGEHGNGPAYRLDTMESTFSRYANAINTDSTFNVLSYLSQHDTQLYPRERLIDGGTYLMLLPGGVQVFYGDETARPFGPTGSDPHQGTRSSMNWDSVNEEVLHHWQKMGQFRSNHLAVGAGEHRQIAASPYTFSRTYVEGDVDDRVVVVVGASGETTIDVSSVFSDGQQVRDFYTGNVTVVENGHVTFPAHRNGVILIERAGDEGHHHHHH	soluble
SPEFMVKAKSWTLKKHFQGKPTQSDFELKTVELPPLKNGEVLLEALFLSVDPYMRIASKRLKEGAVMMGQQVARVVESKNSAFPAGSIVLAQSGWTTHFISDGKGLEKLLTEWPDKLPLSLALGTIGMPGLTAYFGLLEVCGVKGGETVLVSAAAGAVGSVVGQIAKLKGCKVVGAAGSDEKIAYLKQIGFDAAFNYKTVNSLEEALKKASPDGYDCYFDNVGGEFLNTVLSQMKDFGKIAICGAISVYNRMDQLPPGPSPESIIYKQLRIEGFIVYRWQGDVREKALRDLMKWVLEGKIQYHEHVTKGFENMPAAFIEMLNGANLGKAVVTA	soluble
TDPDADRLGVEIRQPDGSYLNLSGNQIGAIIAKYILEAHKTAGTLPANAALCKSIVSTELVTKIAESYGATMFNVLTGFKFIGEKIHEFETQHNYTYMFGFEESFGYLIKPFVRDKDAIQAVLIVAEIAAYYRSRGMTLADGIEEIYKQYGYFSE	not soluble
MATIKDVARLAGVSVATVSRVINNSPKASEASRLAVHSAMESLSYHPNANARALAQQTTETVGLVVGDVSDPFFGAMVKAVEQVAYHTGNFLLIGNGYHNEQKERQAIEQLIRHRCAALVVHAKMIPDADLASLMKQMPGMVLINRILPGFENRCIALDDRYGAWLATRHLIQQGHTRIGYLCSNHSISDAEDRLQGYYDALAESGIAANDRLVTFGEPDESGGEQAMTELLGRGRNFTAVACYNDSMAAGAMGVLNDNGIDVPGEISLIGFDDVLVSRYVRPRLTTVRYPIVTMATQAAELALALADNRPLPEITNVFSPTLVRRHSVSTPSLEASHHATSD	soluble
MGSDKIHHHHHHMYKEYSPCSVLAPFIYHFWEYKGETRNGLKFNIPPHGRSDFVFIVGNAADCIRNSLIMKPYHSYFFGPMNTFTELVAHTNFIYIIGVRFRPCGLFRFIDIPLNELTNQGIDSHEFPVLFSQSFIYQLCESNQNPIDAIEHELVRQVYKNNTDTEKQISYAVSLISRQKGIVSIKELATEACLGLRQFERKFKFYTGYSPKEYSRIVKFWNAIHLLKSNTSFDNFLSVAIQAGYYDTPHLYREVKRLSGNTPNAFLSLSTNEKVEVLHIEL	not soluble
MTKPLNTTQAVIEWVNNTRRYATRLDDEADALLAQLTLAAADESALNAACASHGCVGLYGYAQSAKAHLLTTLCGNENGKLEIITPDRDYDYFSHINPGHAPANMAIRFTRDIFSNESGWPLRLRLISEAELVQIFIAWTSSSPVCRQVEKSIITSRLEKWQSLRQPQPVPGVTAEEVATIASFWRSCLPSARQHIDDATWQHFASLLPALDLTTRAHAWALLWGEQPEITQQWLALAHMLQQTGHAGELAAPLSLLVDHFGLPAENFLTQMALTANDTQSDVVVHPVKEGRLLNAVSLSLDSLALLTRELVLSVENNVLDNVDLLDIPVAPDSHPHPLWRAKLGWMLAHYRQQVQPDVLVICNALASRSQTSTAAHHLLEWVNATQPQHESALPGVVWAITPQDARFATQQNLDEAVQQLMGKPGVHWGTLQALDKHSMQRLVEWLSQATSAPQRQARLQALREQLRGRVRDLLPMFDDARLPVETVIRRLQAQAARHGDLLAGLLPPVQNFEALLSTRQSREEQVCGLFNDAIDLFADEPTRASASEGHETGYQAHKMWINHLRQWAHCRDNAQRLGLEPQMLNAVAEILITASYRLGLPQQLQKTMQREEVSGAQLHAIIGNFIAWLGYANIEEAQRPASRVQKGAAIFAATPRSTMLRLTKLDEQPVHAASRYVYDWLVALYTLANENAGYRHPQDVTDVDRAQLIALIA	soluble
MSLGKKDKRWVLQRKNDHYYNLAKKRNYRSRATYKLFQLNEKFNLIKERNVVVDLGCAPGGWLQAARDIVGDKGFIVGIDLQTVKPLPYENVIAIKGDMTKEEILKQARDLLPEKPDVIICDASPNISGVWDVDHARSLELTTMALMTATKMLKKGGNFVVKVFQGDLFEKYVQLVSEYFDKAFTTKPRASRDESAEVYVIGKRFNGRKFDMNSKSPIVKLLDTNPKENEITSPSLRKDISKEDSGLMIKRIKEMRSKKEGHHHHHH	soluble
MIKVALPKGRLFEETVDLLLKRGIIEKRIEEGRKLILEEGGITFFLVKPSDVPVYVESGVSDLGVCGYDVYLEKKPSVYRLMDLGIGFCRIAVAGKPESEEKYFSSTHISVATKYPNIAYEFFKKKGVKADIYYLNGSVELAPLVGLSDFILDLVQTGRTLKENGLIVIEEVGKSTAWLIANKDSFRIKNGQIMEFLSRLVQHNKDGLQVQGSSLEHHHHHH	not soluble
MKIEVWSDFVCPFCYMGKRRLEIALNEFEYKTDVEISFKSFELDPSAKKEYSENIHELIAKKYKISVEQAKASNDQIVLQAEAIGLNYNFNKLIPTNTFDAHRLSQYAKTKGKMNELSEKIFKAYFVDSLNISDYKVLADLAEEVGISRDESLRILESNQYNEEVREDEKNASKLGIDAVPYFVFDDKYAVSGAQPAEVFLEALYKIDKE	not soluble
